B1: STK38L (parent)
chain: FLPGGDMMTLLMKKDTLTEEETQF
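Also: lentivirally expressed fusions sorted by FACS into six bins by GFP to DsRed ratio, PSI derived from sequencing read proportions per bin multiplied by bin number.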

Variants of B1 are the subject of this series. The experiment in a line: protein stability index of a GFP-peptide fusion (GPS, HEK-293T) (PSI 1-6); higher = more stable. To be noted: c terminus: a fixed tail appended.
In the case of FLPGGDMMALLMKKDTLTEEETQF [T9A], the protein stability index came out at 2.52.
Regarding FLPGGDMMHLLMKKDTLTEEETQF [T9H], the protein stability index is 2.45.
Turning to FLPGGDMMGLLMKKDTLTEEETQF [T9G], the protein stability index turned out to be 2.71.
The result for FLPGGDMMCLLMKKDTLTEEETQF [T9C] reads 2.01; that for FLPGGDMMRLLMKKDTLTEEETQF [T9R], 1.69.
The figure for FLPGGDMMNLLMKKDTLTEEETQF [T9N] is 3.01.
Consider FLPGGDMMQLLMKKDTLTEEETQF [T9Q], for which the protein stability index is 2.69.
As to FLPGGDMMPLLMKKDTLTEEETQF [T9P], the protein stability index stood at 4.22.
The figure for FLPGGDMMYLLMKKDTLTEEETQF [T9Y] is 2; for FLPGGDMMSLLMKKDTLTEEETQF [T9S] it is 2.38; for FLPGGDMMDLLMKKDTLTEEETQF [T9D] it is 4.35.
The result for FLPGGDMMVLLMKKDTLTEEETQF [T9V] reads 1.81; that for FLPGGDMMELLMKKDTLTEEETQF [T9E], 3.2; that for FLPGGDMMLLLMKKDTLTEEETQF [T9L], 2.32.
For the variant FLPGGDMMWLLMKKDTLTEEETQF [T9W], the protein stability index is 2.2.
With FLPGGDMMFLLMKKDTLTEEETQF [T9F], the protein stability index turned out to be 2.16.
In the case of FLPGGDMMMLLMKKDTLTEEETQF [T9M], the protein stability index was 3.26.
On to FLPGGDMMILLMKKDTLTEEETQF [T9I], for which the protein stability index was determined as 2.19.
In the case of FLPGGDMMKLLMKKDTLTEEETQF [T9K], the protein stability index turned out to be 2.12.
With FLPGGDMMTILMKKDTLTEEETQF [L10I], the protein stability index came to 2.64.
The figure for FLPGGDMMTCLMKKDTLTEEETQF [L10C] is 3.45.
The result for FLPGGDMMTELMKKDTLTEEETQF [L10E] reads 4.71; that for FLPGGDMMTTLMKKDTLTEEETQF [L10T], 3.78.
The result for FLPGGDMMTSLMKKDTLTEEETQF [L10S] reads 4.07.
As to FLPGGDMMTFLMKKDTLTEEETQF [L10F], the protein stability index stood at 2.75.
The result for FLPGGDMMTDLMKKDTLTEEETQF [L10D] reads 4.67; that for FLPGGDMMTWLMKKDTLTEEETQF [L10W], 1.98; that for FLPGGDMMTQLMKKDTLTEEETQF [L10Q], 3.91.
In the case of FLPGGDMMTKLMKKDTLTEEETQF [L10K], the protein stability index amounted to 3.11.
In the case of FLPGGDMMTNLMKKDTLTEEETQF [L10N], the protein stability index amounted to 4.26.
Turning to FLPGGDMMTYLMKKDTLTEEETQF [L10Y], the protein stability index stood at 2.
FLPGGDMMTHLMKKDTLTEEETQF [L10H]: the protein stability index is 3.38.
Consider FLPGGDMMTRLMKKDTLTEEETQF [L10R], for which the protein stability index is 3.32.
On to FLPGGDMMTVLMKKDTLTEEETQF [L10V], for which the protein stability index came to 2.98.
FLPGGDMMTPLMKKDTLTEEETQF [L10P]: the protein stability index amounted to 3.9.
On to FLPGGDMMTMLMKKDTLTEEETQF [L10M], for which the protein stability index amounted to 3.16.
Regarding FLPGGDMMTGLMKKDTLTEEETQF [L10G], the protein stability index turned out to be 3.79.
As to FLPGGDMMTALMKKDTLTEEETQF [L10A], the protein stability index came out at 3.73.
On to FLPGGDMMTLLMKKRTLTEEETQF [D15R], for which the protein stability index amounted to 1.84.
The result for FLPGGDMMTLLMKKVTLTEEETQF [D15V] reads 2.2.
Consider FLPGGDMMTLLMKKATLTEEETQF [D15A], for which the protein stability index came to 1.62.
For the variant FLPGGDMMTLLMKKFTLTEEETQF [D15F], the protein stability index amounted to 1.94.
Consider FLPGGDMMTLLMKKHTLTEEETQF [D15H], for which the protein stability index worked out at 2.35.
For FLPGGDMMTLLMKKETLTEEETQF [D15E], the protein stability index was 3.01.
Take FLPGGDMMTLLMKKLTLTEEETQF [D15L]: the protein stability index was determined as 2.56.
On to FLPGGDMMTLLMKKGTLTEEETQF [D15G], for which the protein stability index stood at 2.05.
Turning to FLPGGDMMTLLMKKTTLTEEETQF [D15T], the protein stability index is 1.86.
The figure for FLPGGDMMTLLMKKCTLTEEETQF [D15C] is 2.16.
With FLPGGDMMTLLMKKMTLTEEETQF [D15M], the protein stability index amounted to 2.53.
As for FLPGGDMMTLLMKKKTLTEEETQF [D15K], the protein stability index is 1.66.
Take FLPGGDMMTLLMKKNTLTEEETQF [D15N]: the protein stability index is 2.23.
The result for FLPGGDMMTLLMKKWTLTEEETQF [D15W] reads 1.62; that for FLPGGDMMTLLMKKSTLTEEETQF [D15S], 1.76.
The result for FLPGGDMMTLLMKKQTLTEEETQF [D15Q] reads 1.66; that for FLPGGDMMTLLMKKITLTEEETQF [D15I], 1.75; that for FLPGGDMMTLLMKKPTLTEEETQF [D15P], 1.83.
The result for FLPGGDMMTLLMKKYTLTEEETQF [D15Y] reads 1.1; that for FLPGGDMMTLDMKKDTLTEEETQF [L11D], 4.19; that for FLPGGDMMTLGMKKDTLTEEETQF [L11G], 2.89.
With FLPGGDMMTLFMKKDTLTEEETQF [L11F], the protein stability index is 1.84.
On to FLPGGDMMTLTMKKDTLTEEETQF [L11T], for which the protein stability index is 3.07.
For the variant FLPGGDMMTLAMKKDTLTEEETQF [L11A], the protein stability index was 3.29.
On to FLPGGDMMTLRMKKDTLTEEETQF [L11R], for which the protein stability index came to 3.29.
For the variant FLPGGDMMTLSMKKDTLTEEETQF [L11S], the protein stability index was 3.41.
On to FLPGGDMMTLWMKKDTLTEEETQF [L11W], for which the protein stability index came out at 1.56.
Take FLPGGDMMTLKMKKDTLTEEETQF [L11K]: the protein stability index worked out at 3.91.
With FLPGGDMMTLQMKKDTLTEEETQF [L11Q], the protein stability index is 3.89.
With FLPGGDMMTLIMKKDTLTEEETQF [L11I], the protein stability index was determined as 2.53.
For FLPGGDMMTLHMKKDTLTEEETQF [L11H], the protein stability index was found to be 3.43.
Regarding FLPGGDMMTLMMKKDTLTEEETQF [L11M], the protein stability index is 2.56.
As for FLPGGDMMTLYMKKDTLTEEETQF [L11Y], the protein stability index amounted to 2.41.
As to FLPGGDMMTLCMKKDTLTEEETQF [L11C], the protein stability index is 2.63.
Take FLPGGDMMTLEMKKDTLTEEETQF [L11E]: the protein stability index stood at 4.25.
The result for FLPGGDMMTLPMKKDTLTEEETQF [L11P] reads 3.89; that for FLPGGDMMTLNMKKDTLTEEETQF [L11N], 3.4.
As for FLPGGDMMTLVMKKDTLTEEETQF [L11V], the protein stability index came out at 3.18.
As to FLPGGDMSTLLMKKDTLTEEETQF [M8S], the protein stability index amounted to 4.02.
In the case of FLPGGDMITLLMKKDTLTEEETQF [M8I], the protein stability index was 2.22.
The result for FLPGGDMWTLLMKKDTLTEEETQF [M8W] reads 1.44; that for FLPGGDMHTLLMKKDTLTEEETQF [M8H], 3.95.
For FLPGGDMATLLMKKDTLTEEETQF [M8A], the protein stability index came to 3.75.
As for FLPGGDMGTLLMKKDTLTEEETQF [M8G], the protein stability index was 3.76.
For the variant FLPGGDMNTLLMKKDTLTEEETQF [M8N], the protein stability index stood at 4.12.
Turning to FLPGGDMTTLLMKKDTLTEEETQF [M8T], the protein stability index was 4.3.
In the case of FLPGGDMPTLLMKKDTLTEEETQF [M8P], the protein stability index was determined as 3.82.
The figure for FLPGGDMVTLLMKKDTLTEEETQF [M8V] is 2.54; for FLPGGDMLTLLMKKDTLTEEETQF [M8L] it is 2.06; for FLPGGDMQTLLMKKDTLTEEETQF [M8Q] it is 3.35.
With FLPGGDMYTLLMKKDTLTEEETQF [M8Y], the protein stability index came to 1.94.
In the case of FLPGGDMKTLLMKKDTLTEEETQF [M8K], the protein stability index is 3.66.
As to FLPGGDMRTLLMKKDTLTEEETQF [M8R], the protein stability index was determined as 3.36.
On to FLPGGDMETLLMKKDTLTEEETQF [M8E], for which the protein stability index was found to be 4.21.
Consider FLPGGDMDTLLMKKDTLTEEETQF [M8D], for which the protein stability index turned out to be 4.8.
Regarding FLPGGDMFTLLMKKDTLTEEETQF [M8F], the protein stability index came to 1.84.

Source of the values: the supplement of paper PMC10567573.
